Reference: PMC4014808

How the values were obtained:
L3MBTL2 = assay: ELISA; details: ELISA: 20 mM Tris-HCl pH 7.5, 150 mM NaCl, 20 mM KCl, 0.02% IGEPAL, 1 mM DTT, 1 h at room temperature, 50 uL of 50 nM biotinylated DNA per well
MPG = assay: ELISA; details: all C outside primers replaced by 5-formylcytosine (dfCTP in PCR); ELISA: 20 mM Tris-HCl pH 7.5, 150 mM NaCl, 20 mM KCl, 0.02% IGEPAL, 1 mM DTT, 1 h at room temperature; 50 uL of 50 nM biotinylated DNA per well

Fgf15 promoter probe, 5fC
Kd (L3MBTL2; all C outside primers replaced by 5-formylcytosine (dfCTP in PCR)): 37.1 nM | Kd (MPG): 13.4 nM

Fgf15 promoter probe, C
Kd (L3MBTL2): 81.2 nM
